Targets include SNX27, Q96L92; LNX1_2, Q8TBB1; Inadl_6, Q8NI35; GRID2IP_2, A4D2P6; FRMPD2_3, Q68DX3; MAGI1_2, Q96QZ7; PICK1, Q9NRD5; LAP2, Q96RT1; FRMPD2_2, Q68DX3; GRASP, Q7Z6J2.
Holding throughout (assay): holdup assay
Parameters in all cases: key: below the threshold = too weak to quantify, mostly under pKd 3.1 to 4
Holding throughout (details): plain residues with an end cap or a label only (N-terminal biotin on a linker: ado-ado)

The target in the next experiment is T1, MPDZ_5, O75970.
T1 sequence (O75970 695-796, limits assumed, looked up): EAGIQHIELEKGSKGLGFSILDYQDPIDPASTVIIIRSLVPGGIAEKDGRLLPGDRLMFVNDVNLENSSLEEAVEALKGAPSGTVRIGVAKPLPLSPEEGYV

The target in another experiment is T2, LIN7C, Q9NUP9.
T2 sequence (Q9NUP9 88-185, limits assumed, looked up): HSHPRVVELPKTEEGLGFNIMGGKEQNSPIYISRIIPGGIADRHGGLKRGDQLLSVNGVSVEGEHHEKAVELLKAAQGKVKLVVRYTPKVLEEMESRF

The target of a further experiment is T3, TIAM2, Q8IVF5.
T3 sequence (Q8IVF5 885-986, limits assumed, looked up): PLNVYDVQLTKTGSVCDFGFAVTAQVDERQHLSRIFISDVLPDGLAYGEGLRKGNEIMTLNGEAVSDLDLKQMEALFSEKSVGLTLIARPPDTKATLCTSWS

For another experiment, the target named is T4, APBA1_1, Q02410.
T4 sequence (Q02410 651-752, limits assumed, looked up): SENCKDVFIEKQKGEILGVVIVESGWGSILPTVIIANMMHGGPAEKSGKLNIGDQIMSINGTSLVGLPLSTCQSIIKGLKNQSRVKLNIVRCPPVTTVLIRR

The next experiment has as its target T5, PDZD2_2, O15018.
T5 sequence (O15018 329-429, limits assumed, looked up): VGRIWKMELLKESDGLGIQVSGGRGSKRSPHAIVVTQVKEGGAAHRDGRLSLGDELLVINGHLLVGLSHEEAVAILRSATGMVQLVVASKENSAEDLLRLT

Another experiment addresses T6, DLG3_2, Q92796.
T6 sequence (Q92796 221-321, limits assumed, looked up): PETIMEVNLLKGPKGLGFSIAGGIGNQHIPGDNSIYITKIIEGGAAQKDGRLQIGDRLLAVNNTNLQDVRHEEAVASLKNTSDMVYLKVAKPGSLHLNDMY

In the next experiment the target is T7, ARHGEF11, O15085.
T7 sequence (O15085 42-136, limits assumed, looked up): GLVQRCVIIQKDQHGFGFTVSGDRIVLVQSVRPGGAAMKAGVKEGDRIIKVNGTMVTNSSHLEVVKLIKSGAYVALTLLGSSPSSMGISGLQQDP

The next experiment has as its target T8, LIN7B, Q9HAP6.
T8 sequence (Q9HAP6 88-185, limits assumed, looked up): T2 sequence (Q9NUP9 88-185, limits assumed, looked up) with S2A, E13D, I35V, I40V, H65Q, K79S, K89R, S96A

Another experiment concerns the target T9, TX1BP3, O14907.
T9 sequence (O14907 10-122, limits assumed, looked up): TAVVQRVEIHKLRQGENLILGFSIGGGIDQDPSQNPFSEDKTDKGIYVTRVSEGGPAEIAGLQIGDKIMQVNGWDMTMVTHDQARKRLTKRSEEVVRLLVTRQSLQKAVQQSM

A further experiment concerns the target T10, MPDZ_10, O75970.
T10 sequence (O75970 1624-1722, limits assumed, looked up): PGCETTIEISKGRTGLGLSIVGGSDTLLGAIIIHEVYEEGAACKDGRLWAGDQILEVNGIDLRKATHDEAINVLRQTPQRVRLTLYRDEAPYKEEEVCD

The next experiment addresses T11, GRIP1_4, Q9Y3R0.
T11 sequence (Q9Y3R0 467-571, limits assumed, looked up): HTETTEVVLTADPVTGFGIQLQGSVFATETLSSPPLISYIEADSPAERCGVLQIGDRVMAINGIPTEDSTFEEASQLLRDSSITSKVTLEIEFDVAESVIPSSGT

The target of another experiment is T12, DVL3, Q92997.
T12 sequence (Q92997 244-331, limits assumed, looked up): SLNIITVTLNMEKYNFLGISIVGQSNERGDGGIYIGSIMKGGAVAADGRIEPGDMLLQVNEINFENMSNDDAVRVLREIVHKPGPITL

The target of the next experiment is T13, SNTB1, Q13884.
T13 sequence (Q13884 107-205, limits assumed, looked up): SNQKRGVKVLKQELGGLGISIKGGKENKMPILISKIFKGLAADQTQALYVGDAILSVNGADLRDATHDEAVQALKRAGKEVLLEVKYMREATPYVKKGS

One may read the pKd as the negative decadic logarithm of the Kd, by convention in mol/L.

Numbering of substitutions follows the chain as printed.

Chain of MAGI1_2, Q96QZ7 (Q96QZ7 456-580): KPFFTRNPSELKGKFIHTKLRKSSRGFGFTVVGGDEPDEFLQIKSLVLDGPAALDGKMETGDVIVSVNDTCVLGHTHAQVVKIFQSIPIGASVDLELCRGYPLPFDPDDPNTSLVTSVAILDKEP
Chain of FRMPD2_3, Q68DX3 (Q68DX3 1073-1166): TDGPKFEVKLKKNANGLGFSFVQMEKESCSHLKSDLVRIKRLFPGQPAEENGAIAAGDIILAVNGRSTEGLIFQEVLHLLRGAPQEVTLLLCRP
Chain of GRASP, Q7Z6J2 (Q7Z6J2 96-193): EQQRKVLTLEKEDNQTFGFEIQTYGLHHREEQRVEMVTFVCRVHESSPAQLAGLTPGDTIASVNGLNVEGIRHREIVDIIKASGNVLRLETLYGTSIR
Chain of LAP2, Q96RT1 (Q96RT1 other isoform, or with tags, fused parts or gaps): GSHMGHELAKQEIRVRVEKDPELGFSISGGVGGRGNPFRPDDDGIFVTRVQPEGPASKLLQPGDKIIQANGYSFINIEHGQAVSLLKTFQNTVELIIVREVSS
Chain of PICK1, Q9NRD5 (Q9NRD5 17-115): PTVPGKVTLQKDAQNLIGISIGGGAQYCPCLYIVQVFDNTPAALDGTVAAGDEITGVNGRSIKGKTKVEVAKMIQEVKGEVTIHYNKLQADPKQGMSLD
Chain of LNX1_2, Q8TBB1 (Q8TBB1 371-470): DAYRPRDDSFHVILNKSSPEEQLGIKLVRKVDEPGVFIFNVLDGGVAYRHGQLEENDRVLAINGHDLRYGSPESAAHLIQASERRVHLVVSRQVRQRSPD
Chain of Inadl_6, Q8NI35 (Q8NI35 1058-1167): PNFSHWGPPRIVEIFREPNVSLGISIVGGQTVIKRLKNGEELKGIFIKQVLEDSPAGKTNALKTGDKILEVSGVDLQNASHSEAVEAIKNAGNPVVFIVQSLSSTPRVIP
Chain of FRMPD2_2, Q68DX3 (Q68DX3 944-1038): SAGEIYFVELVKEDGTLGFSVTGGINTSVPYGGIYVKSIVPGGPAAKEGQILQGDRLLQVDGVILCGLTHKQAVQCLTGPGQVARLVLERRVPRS
Chain of GRID2IP_2, A4D2P6 (A4D2P6 272-370): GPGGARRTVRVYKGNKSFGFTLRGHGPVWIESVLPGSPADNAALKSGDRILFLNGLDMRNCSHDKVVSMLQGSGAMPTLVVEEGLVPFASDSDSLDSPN

Turning to QLGSPTADLA [SIPA1, Q96FS4], the pKd entry was “below the threshold” with MPDZ_5, O75970; 3.69 with LIN7C, Q9NUP9; “below the threshold” with SNX27, Q96L92; “below the threshold” in the experiment with LNX1_2, Q8TBB1; 4.24 with TIAM2, Q8IVF5; “below the threshold” with Inadl_6, Q8NI35. Further, the pKd result is “below the threshold” in the experiment with GRID2IP_2, A4D2P6; “below the threshold” with APBA1_1, Q02410; “below the threshold” with PDZD2_2, O15018; 4.06 in the experiment with DLG3_2, Q92796; “below the threshold” in the experiment with ARHGEF11, O15085; “below the threshold” with FRMPD2_3, Q68DX3. Further, the pKd is 3.9 with LIN7B, Q9HAP6; “below the threshold” with MAGI1_2, Q96QZ7; “below the threshold” in the experiment with TX1BP3, O14907; “below the threshold” in the experiment with PICK1, Q9NRD5; “below the threshold” with LAP2, Q96RT1; “below the threshold” with FRMPD2_2, Q68DX3. In addition, the pKd result is reported as “below the threshold” in the experiment with MPDZ_10, O75970; “below the threshold” in the experiment with GRASP, Q7Z6J2; “below the threshold” with GRIP1_4, Q9Y3R0; “below the threshold” with DVL3, Q92997; “below the threshold” with SNTB1, Q13884.

Regarding RGKNRRQSIF [CDK18, Q07002], the pKd result with MPDZ_5, O75970 is “below the threshold”; with LIN7C, Q9NUP9, 3.5; in the experiment with SNX27, Q96L92, “below the threshold”; with LNX1_2, Q8TBB1 it was “below the threshold”; with TIAM2, Q8IVF5, “below the threshold”; with Inadl_6, Q8NI35, “below the threshold”. Further, the pKd entry in the experiment with GRID2IP_2, A4D2P6 is “below the threshold”; with APBA1_1, Q02410, “below the threshold”; with PDZD2_2, O15018, “below the threshold”; with DLG3_2, Q92796 it was 4.19; with ARHGEF11, O15085, “below the threshold”; with FRMPD2_3, Q68DX3, “below the threshold”. The pKd in the experiment with LIN7B, Q9HAP6 is 4.03; in the experiment with MAGI1_2, Q96QZ7, 3.91; in the experiment with TX1BP3, O14907, “below the threshold”; with PICK1, Q9NRD5, 4.17; with LAP2, Q96RT1, 3.74; in the experiment with FRMPD2_2, Q68DX3, “below the threshold”. Also, the pKd is 3.48 with MPDZ_10, O75970; 3.81 with GRASP, Q7Z6J2; “below the threshold” with GRIP1_4, Q9Y3R0; “below the threshold” in the experiment with DVL3, Q92997; “below the threshold” with SNTB1, Q13884.

Take GDSSRKEYFI [GYPC, P04921]: the pKd was 4.66 with MPDZ_5, O75970; “below the threshold” with LIN7C, Q9NUP9; “below the threshold” with SNX27, Q96L92; “below the threshold” with LNX1_2, Q8TBB1; 4.23 with TIAM2, Q8IVF5; 3.54 with Inadl_6, Q8NI35. Moreover, the pKd result with GRID2IP_2, A4D2P6 was “below the threshold”; with APBA1_1, Q02410 it was 3.65; in the experiment with PDZD2_2, O15018, 4.28; with DLG3_2, Q92796 it was 4.19; in the experiment with ARHGEF11, O15085, “below the threshold”; with FRMPD2_3, Q68DX3 it was 3.76. Besides, the pKd was 3.97 with LIN7B, Q9HAP6; “below the threshold” in the experiment with MAGI1_2, Q96QZ7; “below the threshold” in the experiment with TX1BP3, O14907; “below the threshold” with PICK1, Q9NRD5; 3.62 with LAP2, Q96RT1; “below the threshold” with FRMPD2_2, Q68DX3. Besides, the pKd result was “below the threshold” with MPDZ_10, O75970; “below the threshold” with GRASP, Q7Z6J2; “below the threshold” with GRIP1_4, Q9Y3R0; 4.34 in the experiment with DVL3, Q92997; “below the threshold” with SNTB1, Q13884.

Consider NKSEPFLTWL [WWTR1, Q9GZV5], for which the pKd entry is “below the threshold” in the experiment with MPDZ_5, O75970; 3.58 with LIN7C, Q9NUP9; 5.02 in the experiment with SNX27, Q96L92; “below the threshold” in the experiment with LNX1_2, Q8TBB1; 3.65 with TIAM2, Q8IVF5; 5.68 with Inadl_6, Q8NI35. Besides, the pKd with GRID2IP_2, A4D2P6 was 4.65; with APBA1_1, Q02410, 4.11; with PDZD2_2, O15018, 5.89; with DLG3_2, Q92796, “below the threshold”; with ARHGEF11, O15085, 5.33; with FRMPD2_3, Q68DX3, “below the threshold”. The pKd result is “below the threshold” with LIN7B, Q9HAP6; 3.51 in the experiment with MAGI1_2, Q96QZ7; 4.49 with TX1BP3, O14907; “below the threshold” with PICK1, Q9NRD5; 4.6 in the experiment with LAP2, Q96RT1; 4.29 with FRMPD2_2, Q68DX3. The pKd entry in the experiment with MPDZ_10, O75970 was “below the threshold”; in the experiment with GRASP, Q7Z6J2, 5.28; in the experiment with GRIP1_4, Q9Y3R0 it was “below the threshold”; with DVL3, Q92997, 4.54; in the experiment with SNTB1, Q13884, 3.79.

In the case of PSVYSRSQYV [CLDN8, P56748], the pKd was 4.18 with MPDZ_5, O75970; “below the threshold” with LIN7C, Q9NUP9; 3.75 with SNX27, Q96L92; 3.7 with LNX1_2, Q8TBB1; 4.1 with TIAM2, Q8IVF5; “below the threshold” with Inadl_6, Q8NI35. Moreover, the pKd in the experiment with GRID2IP_2, A4D2P6 is 3.56; in the experiment with APBA1_1, Q02410, “below the threshold”; in the experiment with PDZD2_2, O15018 it was 4.55; with DLG3_2, Q92796, 3.74; with ARHGEF11, O15085 it was 4.16; in the experiment with FRMPD2_3, Q68DX3, “below the threshold”. Besides, the pKd result with LIN7B, Q9HAP6 was “below the threshold”; in the experiment with MAGI1_2, Q96QZ7, “below the threshold”; with TX1BP3, O14907, “below the threshold”; with PICK1, Q9NRD5 it was “below the threshold”; with LAP2, Q96RT1, “below the threshold”; with FRMPD2_2, Q68DX3, “below the threshold”. For the same molecule, the pKd entry with MPDZ_10, O75970 is “below the threshold”; with GRASP, Q7Z6J2, 3.51; with GRIP1_4, Q9Y3R0 it was “below the threshold”; in the experiment with DVL3, Q92997, 3.63; with SNTB1, Q13884, “below the threshold”.
